Assay results published in the supplement of paper PMC10567573.

B1: RIPK4 (parent)
chain: AAWQGHLPIVKLLAKQPGVSVNAQ

Variants of: B1
Assay: protein stability index of a GFP-peptide fusion (GPS, HEK-293T) (PSI 1-6); higher = more stable
Conditions: c terminus: a fixed tail appended
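Also: lentivirally expressed fusions sorted by FACS into six bins by GFP to DsRed ratio, PSI derived from sequencing read proportions per bin multiplied by bin number.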

| Variant | protein stability index |
| --- | --- |
| AAWQGALPIVKLLAKQPGVSVNAQ | 2.54 |
| AAWQGDLPIVKLLAKQPGVSVNAQ | 2.98 |
| AAWQGNLPIVKLLAKQPGVSVNAQ | 2.2 |
| AAWQGFLPIVKLLAKQPGVSVNAQ | 1.41 |
| AAWQGVLPIVKLLAKQPGVSVNAQ | 4 |
| AAWQGPLPIVKLLAKQPGVSVNAQ | 2.67 |
| AAWQGYLPIVKLLAKQPGVSVNAQ | 1.1 |
| AAWQGELPIVKLLAKQPGVSVNAQ | 2.81 |
| AAWQGLLPIVKLLAKQPGVSVNAQ | 1.45 |
| AAWQGTLPIVKLLAKQPGVSVNAQ | 2.32 |
| AAWQGSLPIVKLLAKQPGVSVNAQ | 1.84 |
| AAWQGMLPIVKLLAKQPGVSVNAQ | 1.86 |
| AAWQGQLPIVKLLAKQPGVSVNAQ | 2.76 |
| AAWQGILPIVKLLAKQPGVSVNAQ | 2.65 |
| AAWQGHLPIVKLLCKQPGVSVNAQ | 1.33 |
| AAWQGHLPIVKLLFKQPGVSVNAQ | 1.57 |
| AAWQGHLPIVKLLDKQPGVSVNAQ | 3.75 |
| AAWQGHLPIVKLLGKQPGVSVNAQ | 2.72 |
| AAWQGHLPIVKLLEKQPGVSVNAQ | 2.56 |
| AAWNGHLPIVKLLAKQPGVSVNAQ | 2.06 |
| AAWIGHLPIVKLLAKQPGVSVNAQ | 1.34 |
| AAWFGHLPIVKLLAKQPGVSVNAQ | 1.24 |
| AAWRGHLPIVKLLAKQPGVSVNAQ | 1.89 |
| AAWGGHLPIVKLLAKQPGVSVNAQ | 2.56 |

| Variant | protein stability index |
| --- | --- |
| AAWTGHLPIVKLLAKQPGVSVNAQ | 2.65 |
| AAWSGHLPIVKLLAKQPGVSVNAQ | 2.18 |
| AAWPGHLPIVKLLAKQPGVSVNAQ | 3.34 |
| AAWEGHLPIVKLLAKQPGVSVNAQ | 2.45 |
| AAWLGHLPIVKLLAKQPGVSVNAQ | 1.32 |
| AAWAGHLPIVKLLAKQPGVSVNAQ | 1.93 |
| AAWCGHLPIVKLLAKQPGVSVNAQ | 3.15 |
| AAWDGHLPIVKLLAKQPGVSVNAQ | 2.62 |
| AAWYGHLPIVKLLAKQPGVSVNAQ | 1.51 |
| AAWVGHLPIVKLLAKQPGVSVNAQ | 1.7 |
| AAWMGHLPIVKLLAKQPGVSVNAQ | 1.94 |
| AAWWGHLPIVKLLAKQPGVSVNAQ | 1.61 |
| AAWHGHLPIVKLLAKQPGVSVNAQ | 3.18 |
| AAAQGHLPIVKLLAKQPGVSVNAQ | 3.2 |
| AAKQGHLPIVKLLAKQPGVSVNAQ | 3.21 |
| AASQGHLPIVKLLAKQPGVSVNAQ | 3.65 |
| AARQGHLPIVKLLAKQPGVSVNAQ | 2.98 |
| AAEQGHLPIVKLLAKQPGVSVNAQ | 3.63 |
| AAMQGHLPIVKLLAKQPGVSVNAQ | 3.88 |
| AADQGHLPIVKLLAKQPGVSVNAQ | 3.85 |
| AAIQGHLPIVKLLAKQPGVSVNAQ | 3.07 |
| AALQGHLPIVKLLAKQPGVSVNAQ | 2.42 |
| AAFQGHLPIVKLLAKQPGVSVNAQ | 2.97 |
| AACQGHLPIVKLLAKQPGVSVNAQ | 3.78 |

| Variant | protein stability index |
| --- | --- |
| AAQQGHLPIVKLLAKQPGVSVNAQ | 3.5 |
| AAVQGHLPIVKLLAKQPGVSVNAQ | 2.49 |
| AAPQGHLPIVKLLAKQPGVSVNAQ | 3.82 |
| AATQGHLPIVKLLAKQPGVSVNAQ | 3.56 |
| AAGQGHLPIVKLLAKQPGVSVNAQ | 2.91 |
| AAYQGHLPIVKLLAKQPGVSVNAQ | 2.42 |
| AANQGHLPIVKLLAKQPGVSVNAQ | 3.29 |
| AAHQGHLPIVKLLAKQPGVSVNAQ | 3.06 |
| AAWQGHLPIVKYLAKQPGVSVNAQ | 3.14 |
| AAWQGHLPIVKELAKQPGVSVNAQ | 4.1 |
| AAWQGHLPIVKHLAKQPGVSVNAQ | 3.33 |
| AAWQGHLPIVKFLAKQPGVSVNAQ | 2.45 |
| AAWQGHLPIVKVLAKQPGVSVNAQ | 2.35 |
| AAWQGHLPIVKALAKQPGVSVNAQ | 3.04 |
| AAWQGHLPIVKDLAKQPGVSVNAQ | 4.08 |
| AAWQGHLPIVKCLAKQPGVSVNAQ | 2.75 |
| AAWQGHLPIVKQLAKQPGVSVNAQ | 3.02 |
| AAWQGHLPIVKILAKQPGVSVNAQ | 2.4 |
| AAWQGHLPIVKPLAKQPGVSVNAQ | 2.71 |
| AAWQGHLPIVKWLAKQPGVSVNAQ | 1.33 |
| AAWQGHLPIVKRLAKQPGVSVNAQ | 3.56 |
| AAWQGHLPIVKMLAKQPGVSVNAQ | 1.88 |
| AAWQGHLPIVKGLAKQPGVSVNAQ | 3.67 |
| AAWQGHLPIVKTLAKQPGVSVNAQ | 3.25 |

| Variant | protein stability index |
| --- | --- |
| AAWQGHLPIVKSLAKQPGVSVNAQ | 3.75 |
| AAWQGHLPIVKNLAKQPGVSVNAQ | 3.59 |
| AAWQGHLCIVKLLAKQPGVSVNAQ | 3.63 |
| AAWQGHLNIVKLLAKQPGVSVNAQ | 1.78 |
| AAWQGHLHIVKLLAKQPGVSVNAQ | 2.08 |
| AAWQGHLDIVKLLAKQPGVSVNAQ | 2.25 |
| AAWQGHLAIVKLLAKQPGVSVNAQ | 1.63 |
| AAWQGHLFIVKLLAKQPGVSVNAQ | 3.42 |
| AAWQGHLSIVKLLAKQPGVSVNAQ | 1.78 |
| AAWQGHLGIVKLLAKQPGVSVNAQ | 1.8 |
| AAWQGHLKIVKLLAKQPGVSVNAQ | 1.07 |
| AAWQGHLQIVKLLAKQPGVSVNAQ | 1.85 |
| ASWQGHLPIVKLLAKQPGVSVNAQ | 2.25 |
| ARWQGHLPIVKLLAKQPGVSVNAQ | 2.72 |
| ATWQGHLPIVKLLAKQPGVSVNAQ | 3.11 |
| AYWQGHLPIVKLLAKQPGVSVNAQ | 2.12 |
| AAWQGHLPISKLLAKQPGVSVNAQ | 2.72 |
| AAWQGHLPIMKLLAKQPGVSVNAQ | 2.64 |
| AAWQGHLPITKLLAKQPGVSVNAQ | 2.78 |
| AAWQGHLPIYKLLAKQPGVSVNAQ | 3.72 |
| AAWQGHLPIFKLLAKQPGVSVNAQ | 2.16 |
| AAWQGHLPIDKLLAKQPGVSVNAQ | 2.74 |
| AAWQGHLPIPKLLAKQPGVSVNAQ | 2.75 |
| AAWQGHLPICKLLAKQPGVSVNAQ | 2.38 |

| Variant | protein stability index |
| --- | --- |
| AAWQGHLPIEKLLAKQPGVSVNAQ | 3.71 |
| AAWQGHLPIRKLLAKQPGVSVNAQ | 2.37 |
| AAWQGHLPILKLLAKQPGVSVNAQ | 1.61 |
| AAWQGHLPIQKLLAKQPGVSVNAQ | 2.56 |
| AAWQGHLPIIKLLAKQPGVSVNAQ | 1.92 |
| AAWQGHLPIGKLLAKQPGVSVNAQ | 2.36 |
| AAWQGHLPIAKLLAKQPGVSVNAQ | 2.33 |
| AAWQGHLPINKLLAKQPGVSVNAQ | 2.1 |
| AAWQGHLPIHKLLAKQPGVSVNAQ | 2.34 |
| AAWQGHLPIWKLLAKQPGVSVNAQ | 3.69 |
| AAWQGHLPIKKLLAKQPGVSVNAQ | 2.23 |
| AAWQGHNPIVKLLAKQPGVSVNAQ | 3.36 |
| AAWQGHQPIVKLLAKQPGVSVNAQ | 3.55 |
| AAWQGHMPIVKLLAKQPGVSVNAQ | 2.33 |
| AAWQGHEPIVKLLAKQPGVSVNAQ | 3.31 |
| AAWQGHFPIVKLLAKQPGVSVNAQ | 2.71 |
| AAWQGHSPIVKLLAKQPGVSVNAQ | 2.8 |
| AAWQGHIPIVKLLAKQPGVSVNAQ | 2.76 |
| AAWQGHVPIVKLLAKQPGVSVNAQ | 2.65 |
| AAWQGHRPIVKLLAKQPGVSVNAQ | 5.04 |
| AAWQGHTPIVKLLAKQPGVSVNAQ | 2.29 |
| AAWQGHDPIVKLLAKQPGVSVNAQ | 3.03 |
| AAWQGHPPIVKLLAKQPGVSVNAQ | 3.21 |
| AAWQGHWPIVKLLAKQPGVSVNAQ | 1.81 |

| Variant | protein stability index |
| --- | --- |
| AAWQGHGPIVKLLAKQPGVSVNAQ | 3.01 |
| AAWQGHAPIVKLLAKQPGVSVNAQ | 2.1 |
| AAWQGHCPIVKLLAKQPGVSVNAQ | 2.21 |
| AAWQGHYPIVKLLAKQPGVSVNAQ | 2.05 |
| AAWQGHLPIVALLAKQPGVSVNAQ | 1.76 |
| AAWQGHLPIVMLLAKQPGVSVNAQ | 2.13 |
| AAWQGHLPIVSLLAKQPGVSVNAQ | 1.58 |
| AAWQGHLPIVNLLAKQPGVSVNAQ | 2.4 |
| AAWQGHLPIVCLLAKQPGVSVNAQ | 3.38 |
| AAWQGHLPIVILLAKQPGVSVNAQ | 1.4 |
| AAWQGHLPIVRLLAKQPGVSVNAQ | 1.72 |
| AAWQGHLPIVELLAKQPGVSVNAQ | 3.62 |
| AAWQGHLPIVTLLAKQPGVSVNAQ | 2.1 |
| AAWQGHLPIVGLLAKQPGVSVNAQ | 3 |
| AAWQGHLPIVPLLAKQPGVSVNAQ | 3.07 |
| AAWQGHLPIVQLLAKQPGVSVNAQ | 2.35 |
| AAWQGHLPIVHLLAKQPGVSVNAQ | 2.15 |
| AAWQGHLPIVYLLAKQPGVSVNAQ | 1.94 |
| AAWQGHLPIVVLLAKQPGVSVNAQ | 1.84 |
| AAWQMHLPIVKLLAKQPGVSVNAQ | 2.37 |
| AAWQNHLPIVKLLAKQPGVSVNAQ | 3.7 |
| AAWQIHLPIVKLLAKQPGVSVNAQ | 1.81 |
| AAWQPHLPIVKLLAKQPGVSVNAQ | 2.56 |
| AAWQRHLPIVKLLAKQPGVSVNAQ | 2.36 |

| Variant | protein stability index |
| --- | --- |
| AAWQSHLPIVKLLAKQPGVSVNAQ | 2.2 |
| AAWQCHLPIVKLLAKQPGVSVNAQ | 2.69 |
| AAWQWHLPIVKLLAKQPGVSVNAQ | 1.71 |
| AAWQVHLPIVKLLAKQPGVSVNAQ | 2.58 |
| AAWQEHLPIVKLLAKQPGVSVNAQ | 2.83 |
| AAWQHHLPIVKLLAKQPGVSVNAQ | 1.86 |
| AAWQYHLPIVKLLAKQPGVSVNAQ | 2.89 |
| AAWQDHLPIVKLLAKQPGVSVNAQ | 2.94 |
| AAWQQHLPIVKLLAKQPGVSVNAQ | 2.44 |
| AAWQAHLPIVKLLAKQPGVSVNAQ | 2.02 |
| AAWQTHLPIVKLLAKQPGVSVNAQ | 2.69 |
| AAWQKHLPIVKLLAKQPGVSVNAQ | 1.97 |
| AAWQLHLPIVKLLAKQPGVSVNAQ | 1.52 |
| AAWQGHLPNVKLLAKQPGVSVNAQ | 1.79 |
| AAWQGHLPVVKLLAKQPGVSVNAQ | 2.64 |
| AAWQGHLPTVKLLAKQPGVSVNAQ | 3.02 |
| AAWQGHLPFVKLLAKQPGVSVNAQ | 2.36 |
| AAWQGHLPSVKLLAKQPGVSVNAQ | 2.83 |
| AAWQGHLPEVKLLAKQPGVSVNAQ | 2.55 |
| AAWQGHLPAVKLLAKQPGVSVNAQ | 3.49 |
| AAWQGHLPQVKLLAKQPGVSVNAQ | 2.78 |
| AAWQGHLPGVKLLAKQPGVSVNAQ | 2.14 |
| AAWQGHLPPVKLLAKQPGVSVNAQ | 3.45 |
| AAWQGHLPWVKLLAKQPGVSVNAQ | 2.63 |

| Variant | protein stability index |
| --- | --- |
| AAWQGHLPHVKLLAKQPGVSVNAQ | 2.47 |
| AAWQGHLPCVKLLAKQPGVSVNAQ | 3.1 |
| AAWQGHLPYVKLLAKQPGVSVNAQ | 2.45 |
| AAWQGHLPIVKLNAKQPGVSVNAQ | 3.81 |
| AAWQGHLPIVKLVAKQPGVSVNAQ | 2.88 |
| AAWQGHLPIVKLSAKQPGVSVNAQ | 2.85 |
| AAWQGHLPIVKLWAKQPGVSVNAQ | 3.24 |
| AAWQGHLPIVKLKAKQPGVSVNAQ | 2.86 |
| AAWQGHLPIVKLRAKQPGVSVNAQ | 3.09 |
| AAWQGHLPIVKLDAKQPGVSVNAQ | 3.82 |
| AAWQGHLPIVKLPAKQPGVSVNAQ | 3.55 |
| AAWQGHLPIVKLEAKQPGVSVNAQ | 4.25 |
| AAWQGHLPIVKLAAKQPGVSVNAQ | 2.9 |
| AAWQGHLPIVKLYAKQPGVSVNAQ | 2.94 |
| AAWQGHLPIVKLHAKQPGVSVNAQ | 2.5 |
| AAWQGHLPIVKLCAKQPGVSVNAQ | 2.86 |
| AAWQGHLPIVKLFAKQPGVSVNAQ | 2.39 |
| AAWQGHLPIVKLIAKQPGVSVNAQ | 2.82 |
| AAWQGHLPIVKLTAKQPGVSVNAQ | 2.16 |
| AAWQGHLPIVKLQAKQPGVSVNAQ | 4.64 |
